± gives the standard deviation of the averaged measurements.
Tested on: ATP
Assay: switch fluorescence ratio, 500 uM ATP over buffer (Cy3 cluster intensity, sum of 5 cycles each) (fold (ratio)); higher = stronger signal-on switching upon ATP binding; sequences stand for … in TCGTCGGCAGCGTCAGATGTGTATAAGAGACAGTTTTTTTTTTTTTTTTTTTTTTTTT…TC
Conditions: aptamer strand: ATP DNA aptamer (quencher-CACCTGGGGGAGTATTGCGGAGGAAGG + anchor), 100 nM annealed; ATP concentration: 500 uM
How it was run: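 Imaging in selection buffer was followed by imaging after 15 min with 500 uM ATP at 22 °C, for Cy3-labelled switching-strand clusters annealed to 100 nM quencher-labelled ATP aptamer on a modified Illumina MiSeq flow-cell. Five of these buffer/ATP cycles ran, separated by NaOH stripping and re-annealing. The fluorescence ratio per cluster is summed target-cycle over summed buffer-cycle Cy3 intensity, averaged per switch-domain sequence; clusters outside 100-1000 RFU were removed.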
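Note: ATP exposure 15 min at 22 °C before imaging.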

**Q.** Which switch fluorescence ratio does the source give for GGGATTGCTA here?
**A.** 1.03 ± 0.012

**Q.** Which switch fluorescence ratio does the source give for GGGATTGGTG here?
**A.** 0.995 ± 0.026

**Q.** For GGGATTTGTA, which switch fluorescence ratio is on record?
**A.** 1.02 ± 0.017

**Q.** With GGGCAAAAAA as the sequence, how does the switch fluorescence ratio read?
**A.** 1.03 ± 0.073

**Q.** Which switch fluorescence ratio does the source give for GGGCAAACTT here?
**A.** 1.02 ± 0.018

**Q.** With GGGCAAAGGG as the sequence, how does the switch fluorescence ratio read?
**A.** 0.999 ± 0.041

**Q.** How did the switch fluorescence ratio turn out when GGGCAACTGA was run?
**A.** 1.01 ± 0.024

**Q.** How did the switch fluorescence ratio turn out when GGGCAAGAGT was run?
**A.** 1.03 ± 0.024

**Q.** For GGGCAAGGAG, which switch fluorescence ratio is on record?
**A.** 1.01 ± 0.02

**Q.** With GGGCAAGTCA as the sequence, how does the switch fluorescence ratio read?
**A.** 1.02 ± 0.014

**Q.** For GGGCAATGCT, which switch fluorescence ratio is on record?
**A.** 3.33 ± 3.1

**Q.** How did the switch fluorescence ratio turn out when GGGCACAGAA was run?
**A.** 0.9751 ± 0.0022

**Q.** GGGCACGTCG was tested. Which switch fluorescence ratio did it give?
**A.** 0.9888 ± 0.0094

**Q.** With GGGCACTGGT as the sequence, how does the switch fluorescence ratio read?
**A.** 1.04 ± 0.032

**Q.** Which switch fluorescence ratio does the source give for GGGCAGAAAT here?
**A.** 1.01 ± 0.048

**Q.** GGGCAGCGCA was tested. Which switch fluorescence ratio did it give?
**A.** 0.99057 ± 0.00048

**Q.** GGGCAGCTCT was tested. Which switch fluorescence ratio did it give?
**A.** 0.958 ± 0.016

**Q.** For GGGCAGGCAC, which switch fluorescence ratio is on record?
**A.** 0.993 ± 0.018

**Q.** With GGGCAGGGAG as the sequence, how does the switch fluorescence ratio read?
**A.** 1 ± 0.017

**Q.** With GGGCATATTC as the sequence, how does the switch fluorescence ratio read?
**A.** 1.155 ± 0.0089

**Q.** GGGCATGCAT was tested. Which switch fluorescence ratio did it give?
**A.** 1.019 ± 0.0086

**Q.** For GGGCATGGTG, which switch fluorescence ratio is on record?
**A.** 1.05 ± 0.025

**Q.** For GGGCATGTAC, which switch fluorescence ratio is on record?
**A.** 1.57 ± 0.15

**Q.** For GGGCATTTAG, which switch fluorescence ratio is on record?
**A.** 1.03 ± 0.092

**Q.** For GGGCCAACGA, which switch fluorescence ratio is on record?
**A.** 1.042 ± 0.0014

**Q.** With GGGCCAAGGA as the sequence, how does the switch fluorescence ratio read?
**A.** 1.01 ± 0.02

**Q.** For GGGCCCATA, which switch fluorescence ratio is on record?
**A.** 0.982 ± 0.028

**Q.** Which switch fluorescence ratio does the source give for GGGCCCGCAA here?
**A.** 5.05 ± 0.21

**Q.** How did the switch fluorescence ratio turn out when GGGCCCGGTT was run?
**A.** 1.005 ± 0.0068

**Q.** How did the switch fluorescence ratio turn out when GGGCCCTTAC was run?
**A.** 1.11 ± 0.06

**Q.** Which switch fluorescence ratio does the source give for GGGCCGCGCT here?
**A.** 0.942 ± 0.039

**Q.** With GGGCCGGTTG as the sequence, how does the switch fluorescence ratio read?
**A.** 0.995 ± 0.017

**Q.** GGGCCTGGAG was tested. Which switch fluorescence ratio did it give?
**A.** 1.012 ± 0.0086

**Q.** Which switch fluorescence ratio does the source give for GGGCGAAATG here?
**A.** 1.32 ± 0.28

**Q.** Which switch fluorescence ratio does the source give for GGGCGCAAGG here?
**A.** 1.02 ± 0.029

**Q.** For GGGCGCCATC, which switch fluorescence ratio is on record?
**A.** 1.01 ± 0.016

**Q.** GGGCGCGGTG was tested. Which switch fluorescence ratio did it give?
**A.** 1.06 ± 0.081

**Q.** How did the switch fluorescence ratio turn out when GGGCGCTTCT was run?
**A.** 0.9913 ± 0.0072

**Q.** How did the switch fluorescence ratio turn out when GGGCGGATGG was run?
**A.** 0.986 ± 0.018

**Q.** Which switch fluorescence ratio does the source give for GGGCGGCGGC here?
**A.** 0.988 ± 0.0099

**Q.** How did the switch fluorescence ratio turn out when GGGCGGCTGC was run?
**A.** 0.955 ± 0.03

**Q.** With GGGCGGCTGT as the sequence, how does the switch fluorescence ratio read?
**A.** 1 ± 0.033

**Q.** For GGGCGGGGGA, which switch fluorescence ratio is on record?
**A.** 1.06 ± 0.079

**Q.** Which switch fluorescence ratio does the source give for GGGCGGTATA here?
**A.** 0.986 ± 0.025

**Q.** How did the switch fluorescence ratio turn out when GGGCGGTCGG was run?
**A.** 1 ± 0.03

**Q.** GGGCGTAAAA was tested. Which switch fluorescence ratio did it give?
**A.** 1.07 ± 0.023

**Q.** With GGGCGTCGGT as the sequence, how does the switch fluorescence ratio read?
**A.** 0.984 ± 0.015

**Q.** GGGCGTTTTT was tested. Which switch fluorescence ratio did it give?
**A.** 0.992 ± 0.017

**Q.** With GGGCTAAAAC as the sequence, how does the switch fluorescence ratio read?
**A.** 0.971 ± 0.035

**Q.** Which switch fluorescence ratio does the source give for GGGCTATGTA here?
**A.** 0.993 ± 0.0095

**Q.** How did the switch fluorescence ratio turn out when GGGCTGAGGG was run?
**A.** 0.988 ± 0.029

**Q.** Which switch fluorescence ratio does the source give for GGGCTGTTGC here?
**A.** 1.08 ± 0.13

**Q.** With GGGCTTATGA as the sequence, how does the switch fluorescence ratio read?
**A.** 1.018 ± 0.0044

**Q.** Which switch fluorescence ratio does the source give for GGGCTTGAAG here?
**A.** 1.01 ± 0.017

**Q.** Which switch fluorescence ratio does the source give for GGGCTTGTAT here?
**A.** 1.03 ± 0.014

**Q.** Which switch fluorescence ratio does the source give for GGGCTTGTCC here?
**A.** 0.98 ± 0.043

**Q.** Which switch fluorescence ratio does the source give for GGGCTTTACG here?
**A.** 1.01 ± 0.011

**Q.** Which switch fluorescence ratio does the source give for GGGCTTTATG here?
**A.** 0.986 ± 0.023

**Q.** For GGGCTTTTCG, which switch fluorescence ratio is on record?
**A.** 0.992 ± 0.024

**Q.** Which switch fluorescence ratio does the source give for GGGGAAACGA here?
**A.** 0.9987 ± 0.0015

**Q.** For GGGGAAAGAG, which switch fluorescence ratio is on record?
**A.** 1 ± 0.017

**Q.** For GGGGAAAGCG, which switch fluorescence ratio is on record?
**A.** 1 ± 0.026

**Q.** For GGGGAAATTA, which switch fluorescence ratio is on record?
**A.** 1.02 ± 0.012

**Q.** How did the switch fluorescence ratio turn out when GGGGAACGGT was run?
**A.** 1.03 ± 0.012

**Q.** GGGGAAGAAG was tested. Which switch fluorescence ratio did it give?
**A.** 0.969 ± 0.02

**Q.** Which switch fluorescence ratio does the source give for GGGGAAGCCT here?
**A.** 1.07 ± 0.03

**Q.** How did the switch fluorescence ratio turn out when GGGGAAGCGG was run?
**A.** 0.991 ± 0.056

**Q.** How did the switch fluorescence ratio turn out when GGGGAAGGGG was run?
**A.** 1.03 ± 0.058

**Q.** With GGGGAAGTTT as the sequence, how does the switch fluorescence ratio read?
**A.** 0.998 ± 0.027

**Q.** Which switch fluorescence ratio does the source give for GGGGAATTTG here?
**A.** 1.01 ± 0.041

**Q.** Which switch fluorescence ratio does the source give for GGGGACAATG here?
**A.** 1.02 ± 0.044

**Q.** Which switch fluorescence ratio does the source give for GGGGACACGG here?
**A.** 1.03 ± 0.016

**Q.** For GGGGACAGAT, which switch fluorescence ratio is on record?
**A.** 0.991 ± 0.017

**Q.** For GGGGACGAGC, which switch fluorescence ratio is on record?
**A.** 0.999 ± 0.027

**Q.** How did the switch fluorescence ratio turn out when GGGGACGATG was run?
**A.** 0.996 ± 0.019

**Q.** For GGGGACGTAC, which switch fluorescence ratio is on record?
**A.** 1.47 ± 0.22

**Q.** With GGGGACGTAT as the sequence, how does the switch fluorescence ratio read?
**A.** 1.01 ± 0.019

**Q.** GGGGACGTTT was tested. Which switch fluorescence ratio did it give?
**A.** 1.03 ± 0.043

**Q.** Which switch fluorescence ratio does the source give for GGGGACTAGG here?
**A.** 0.982 ± 0.058

**Q.** GGGGACTAGT was tested. Which switch fluorescence ratio did it give?
**A.** 0.957 ± 0.043

**Q.** Which switch fluorescence ratio does the source give for GGGGACTGCA here?
**A.** 1.03 ± 0.049

**Q.** Which switch fluorescence ratio does the source give for GGGGAGAAAC here?
**A.** 1.08 ± 0.042

**Q.** For GGGGAGAACT, which switch fluorescence ratio is on record?
**A.** 0.992 ± 0.016

**Q.** GGGGAGAAGA was tested. Which switch fluorescence ratio did it give?
**A.** 0.9662 ± 0.005

**Q.** For GGGGAGACGA, which switch fluorescence ratio is on record?
**A.** 1.04 ± 0.022

**Q.** With GGGGAGAGAC as the sequence, how does the switch fluorescence ratio read?
**A.** 1.04 ± 0.041

**Q.** With GGGGAGCCGT as the sequence, how does the switch fluorescence ratio read?
**A.** 1.03 ± 0.086

**Q.** With GGGGAGGAAG as the sequence, how does the switch fluorescence ratio read?
**A.** 0.997 ± 0.012

**Q.** GGGGAGGCCC was tested. Which switch fluorescence ratio did it give?
**A.** 0.998 ± 0.031

**Q.** GGGGAGGGAC was tested. Which switch fluorescence ratio did it give?
**A.** 1.02 ± 0.053

**Q.** With GGGGAGGGCC as the sequence, how does the switch fluorescence ratio read?
**A.** 1.01 ± 0.032

**Q.** GGGGAGGGCG was tested. Which switch fluorescence ratio did it give?
**A.** 0.967 ± 0.034

**Q.** For GGGGAGGTAA, which switch fluorescence ratio is on record?
**A.** 0.973 ± 0.012

**Q.** For GGGGAGTGAG, which switch fluorescence ratio is on record?
**A.** 0.986 ± 0.017

**Q.** How did the switch fluorescence ratio turn out when GGGGAGTTAT was run?
**A.** 1.01 ± 0.0024

**Q.** Which switch fluorescence ratio does the source give for GGGGATAAAA here?
**A.** 1.01 ± 0.034

**Q.** For GGGGATACGT, which switch fluorescence ratio is on record?
**A.** 1 ± 0.021

**Q.** For GGGGATCCCC, which switch fluorescence ratio is on record?
**A.** 1.03 ± 0.019

**Q.** Which switch fluorescence ratio does the source give for GGGGATGGCT here?
**A.** 0.992 ± 0.039

**Q.** Which switch fluorescence ratio does the source give for GGGGATGGTG here?
**A.** 1 ± 0.035
